This note sets out measurements from patent US20200165342A1.

Several values for one entry are separate records, joined by “and”; a condition that tells them apart may be missing. Identical values can stand only once.

What all share (assay): cell-based or functional assay
Assay [1] addresses HLA-DR of the DR^str donor (HLA-DRB1 variant bound strongly by MVR), on B cells, T cells and EBV LCLs (human).
In assay [2] the target is HLA-DR of the DR^int donor (HLA-DRB1 variant bound with intermediate affinity by MVR), on B cells and T cells (human).
In assay [3] the target is HLA-DR of the DR^weak donor (HLA-DRB1 variant bound weakly by MVR), on B cells, T cells and EBV LCLs (human).

B1: MVR CAR (second-generation HLA-DR CAR, FLAG-tagged, from pELPS-FLAGMVRBBz, expressed on T cells or EBV LCLs) (protein)
chain: DYKDDDDKDIQMTQSSSYLSVSLGGRVTITCKASDHINNWLAWYQQKPGNAPRLLISGATSLETGVPSRFSGSGSGKDYTLSITSLQTEDVATYYCQQYWSTPFTFGSGTKLEIKGGGGSGGGGSGGGGSQVQLKESGPGLVAPSQSLSITSTVSGFSLSRYSVHWVRQPPGKGLEWLGMIWGGGSTDYNSALKSRLSISKDNSKSQVFLKMNSLQTDDTAMYYCARNEGDTTAGTWFAYWGQGTLVTVSSTTTPAPRPPTPAPTIASQPLSLRPEACRPAAGGAVHTRGLDFACDIYIWAPLAGTCGVLLLSLVITLYCKRGRKKLLYIFKQPFMRPVQTTQEEDGCSCRFPEEEEGGCELRVKFSRSADAPAYKQGQNQLYNELNLGRREEYDVLDKRRGRDPEMGGKPRRKNPQEGLYNELQKDKMAEAYSEIGMKGERRRGKGHDGLYQGLSTATKDTYDALHMQALPPR
Regarding B1, in assay [1], the frequency of CD4+ MVR-CAR T cells with two or more polyfunctional markers after co-culture with DR^str-EBV-LCLs was 71.3%; the frequency of CD8+ MVR-CAR T cells with two or more polyfunctional markers after co-culture with DR^str-EBV-LCLs was found to be 29.4%; the granule influx into DR^str B cells and DR^str EBV LCLs relative to CD19 CAR T cells was 2 fold and 4 fold; the granule transfer rate to DR^str-EBV-LCLs relative to DR^weak-EBV-LCLs fell in the range of 2 to 3 times higher. In assay [2], this molecule registered a frequency of CAR T cells with two or more exhaustion markers (LAG-3, Tim-3, CTLA-4, PD-1) of 65.8%. In assay [3], this molecule displayed a frequency of CAR T cells with two or more exhaustion markers of 9.2%, a frequency of CD4+ MVR-CAR T cells with two or more polyfunctional markers after co-culture with DR^weak-EBV-LCLs of 31.6%, a frequency of CD8+ MVR-CAR T cells with two or more polyfunctional markers after co-culture with DR^weak-EBV-LCLs of 26.3% and a frequency of Tim-3 expressing CAR T cells of 60.7%. In assay [3], the surface CAR expression (MFI) relative to CD19 CAR T cells turned out to be 2 fold lower.
